Data from the Immune Epitope Database (IEDB).

Experiments:
[1] = target: HLA-A*02:03; assay: IEDB peptide-MHC binding, purified MHC/competitive/radioactivity; filed as Kd, often an IC50 or EC50 that approximates it; ≥ and ≤ were set here for values at or beyond the usual limits of such assays
[2] = target: HLA-A*02:02; assay: as above
[3] = target: HLA-A*02:06; assay: as above
[4] = target: HLA-A*30:02; assay: as above; details: source organism: Dengue virus 2 Peru/IQT2913/1996
[5] = target: HLA-A*26:01; assay: as above
[6] = target: HLA-A*24:02; assay: as above
[7] = target: HLA-A*23:01; assay: as above
[8] = target: HLA-A*01:01; assay: as above
[9] = target: HLA-B*44:03; assay: as above
[10] = target: HLA-B*44:02; assay: as above
[11] = target: HLA-A*11:01; assay: IEDB peptide-MHC binding, purified MHC/direct/fluorescence; filed as Kd, often an IC50 or EC50 that approximates it; ≥ and ≤ were set here for values at or beyond the usual limits of such assays; details: source organism: Homo sapiens
[12] = target: HLA-B*07:02; assay: as above; details: source organism: Human immunodeficiency virus 1
[13] = target: HLA-A*03:01; assay: as above; details: source organism: Cryptosporidium parvum
[14] = target: HLA-A*03:01; assay: IEDB peptide-MHC binding, purified MHC/competitive/radioactivity; filed as Kd, often an IC50 or EC50 that approximates it; ≥ and ≤ were set here for values at or beyond the usual limits of such assays; details: source organism: Vaccinia virus WR
[15] = target: HLA-A*31:01; assay: as above; details: source organism: Vaccinia virus WR
[16] = target: HLA-A*11:01; assay: as above; details: source organism: Vaccinia virus WR
[17] = target: HLA-A*68:01; assay: as above; details: source organism: Vaccinia virus WR
[18] = target: HLA-A*29:02; assay: as above; details: source organism: Vaccinia virus WR
[19] = target: HLA-A*33:01; assay: as above; details: source organism: Vaccinia virus WR
[20] = source organism: Vaccinia virus WR
[21] = source organism: SARS coronavirus Tor2
[22] = source organism: Dengue virus 1 Brazil/97-11/1997
[23] = source organism: Lassa virus Josiah
[24] = source organism: Mammarenavirus lassaense
[25] = source organism: Dengue virus 2 Jamaica/1409/1983
[26] = source organism: Dengue virus 3 Martinique/1243/1999
[27] = source organism: Dengue virus 3 Sri Lanka/1266/2000
[28] = source organism: Dengue virus 4 Philippines/H241/1956
[29] = source organism: Mammarenavirus machupoense
[30] = source organism: Mammarenavirus guanaritoense

Sequence	Kd [1, 20]	Kd [2, 20]	Kd [3, 20]	other results
VTGSYNLVDT	≥ 70.4 µM	≥ 70 µM	≥ 69.8 µM	–
TVDVRNIVT	13.1 µM	13.4 µM	≥ 54 µM	–
KKGKVVGLY	–	–	–	Kd [4]: 0.0853 µM
KLMGHFSWWT	–	–	–	Kd [1, 21]: 0.213 µM; Kd [2, 21]: 0.0644 µM; Kd [3, 21]: 0.0991 µM
EISSMLNIM	–	–	–	Kd [5, 22]: 0.657 µM
LNQAVNNLV	–	–	–	Kd [1, 23]: 3.35 µM; Kd [2, 23]: 0.51 µM; Kd [3, 23]: 13.6 µM
LLWDYMCIS	–	–	–	Kd [1, 24]: 0.596 µM; Kd [2, 24]: 0.146 µM; Kd [3, 24]: 0.408 µM
MYFHRRDLRL	–	–	–	Kd [6, 25]: 0.149 µM; Kd [7, 25]: 0.0573 µM
ELTSNCTRT	≥ 78.1 µM	≥ 77.8 µM	≥ 46.5 µM	–
NTGMGMYYPT	≥ 21 µM	≥ 23.4 µM	11.4 µM	–
VTTWENVPYL	–	–	–	Kd [8, 26]: 11.3 µM
IKYTDRKWCF	–	–	–	Kd [6, 26]: 2.37 µM
CALVSDCAST	0.146 µM	6.41 µM	2.6 µM	–
GVPHSVFIA	3.63 µM	5.37 µM	0.101 µM	–
DISDVKVLAA	2.2 µM	≥ 33.8 µM	4.61 µM	–
SIDHCSSFIV	0.772 µM	0.172 µM	0.0303 µM	–
QEHETSWHYD	–	–	–	Kd [9, 25]: 0.746 µM; Kd [10, 25]: 0.158 µM
ITDQTVNICI	≥ 70.4 µM	≥ 70 µM	10.4 µM	–
NTIFTLTVAW	–	–	–	Kd [5, 27]: 8.78 µM; Kd [9, 27]: ≥ 23.1 µM; Kd [10, 27]: 7.26 µM
AEIQPQWIAA	–	–	–	Kd [9, 28]: 1.12 µM; Kd [10, 28]: 0.0672 µM
MVTLYLGVM	–	–	–	Kd [5, 22]: 0.163 µM

Sequence	Kd [1, 20]	Kd [2, 20]	Kd [3, 20]	other results
PWLSSKPEF	–	–	–	Kd [7, 28]: 0.116 µM
NYADRRWCF	–	–	–	Kd [6, 25]: 0.0122 µM; Kd [7, 25]: 0.0506 µM
ERPAFGIQK	–	–	–	Kd [11]: 17.5 µM
LLDCIMYQS	–	–	–	Kd [1, 29]: 2.27 µM; Kd [2, 29]: 1.53 µM; Kd [3, 29]: 3.28 µM
YVIGLLPQS	–	–	–	Kd [1, 30]: ≥ 78.1 µM; Kd [2, 30]: ≥ 77.7 µM; Kd [3, 30]: ≥ 48 µM
AAVIIMAINV	0.607 µM	1.29 µM	0.446 µM	–
ESEMIIPKNF	–	–	–	Kd [5, 25]: ≥ 69.7 µM; Kd [8, 25]: ≥ 70.4 µM
IPLTEEAEL	–	–	–	Kd [12]: 5.31 µM
FFAFGHMIK	–	–	–	Kd [13]: ≥ 20 µM
IAGGVCYYL	1.68 µM	0.0531 µM	1.41 µM	–
FTEEQQQSFM	1.75 µM	1.12 µM	0.833 µM	–
ELPETMETLL	–	–	–	Kd [5, 26]: 2.37 µM
IVVPVIDRL	0.226 µM	0.144 µM	0.0309 µM	–
IVNNQESNKY	–	–	–	Kd [14]: 0.487 µM; Kd [15]: ≥ 52.9 µM; Kd [16]: 1.65 µM; Kd [17]: 7.54 µM; Kd [18]: ≥ 32.6 µM; Kd [19]: ≥ 70 µM
SELETPNLAE	–	–	–	Kd ([9]; source organism: Dengue virus 1 Singapore/S275/1990): 6.33 µM
LTGTFVTAFI	0.596 µM	0.672 µM	0.413 µM	–
AAAKTPVIVV	1.52 µM	8.04 µM	13.4 µM	–
SAGFTATICL	≥ 20.1 µM	6.9 µM	2.41 µM	–
DLAIKQYGDI	≥ 33.3 µM	17.9 µM	≥ 46.5 µM	–
AIILASFSA	–	–	–	Kd [1, 21]: 0.176 µM; Kd [2, 21]: 0.201 µM; Kd [3, 21]: 0.0816 µM
